The RNAGym collection of RNA variant scans (doi:10.1093/molbev/msab373)

B1: Azoarcus group I ribozyme (parent)
chain: GUGCCUUGCGCCGGGAAACCACGCAAGGGAUGGUGUCAAAUUCGGCGAAACCUAAGCGCCCGCCCGGGCGUAUGGCAACGCCGAGCCAAGCUUCGGCGCCUGCGCCGAUGAAGGUGUAGAGACUAGACGGCACCCACCUAAGGCAAACGCUAUGGUGAAGGCAUAGUCCAGGGAGUGGCGAAAGUCACACAAACCGG

Variants of: B1
Test: reverse-splicing fitness (ratio to wild type); higher = more active; in vitro selection; Mg2+ level not given
How it was run: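 An in vitro group I ribozyme library with randomized positions was T7-transcribed and gel-purified. In triplicate, 10 pmol RNA in EPPS pH 7.5 was reacted with 50 pmoles of a 30-nt RNA substrate for 1 h at 37 °C across several added MgCl2 levels (1–48 mM), then stopped with EDTA. Products were reverse transcribed from a substrate-complementary primer, PCR-amplified and sequenced (HiSeq 4000). Fitness is a variant's read proportion after selection over that before, normalised to wild type.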

Row | Variant | reverse-splicing fitness
1 | C82A A145C | 0.586
2 | C82A A145G | 0.631
3 | C82A A120U C150G C169G U176G | 0.00232
4 | C82A A120U C150G C169G U176C | 0.00251
5 | C82A A120U C150G C169G U176A | 0.00506
6 | C82A A120U A145U C150G | 0.0166
7 | C82A A120U A145U C150A | 0.0126
8 | C82A A120U A145U C150U | 0.0889
9 | C82A A145C C150U C169U U176A | 0.0125
10 | C82A A145C C150U C169U U176G | 0.00481
11 | C82A A145C C150U C169U U176C | 0.00806
12 | C82A A120U A145U C150G C169U U176G | 0.0021
13 | C82A A120U A145U C150G C169U U176C | 0.00262
14 | C82A A120U A145U C150G C169U U176A | 0.0025
15 | C82A A145G C150A | 0.0995
16 | C82A A145G C150G | 0.0693
17 | C82A A145G C150U | 0.544
18 | C82A A145C C150U C169G | 0.00747
19 | C82A A145C C150U C169U | 0.0111
20 | C82A A145C C150U C169A | 0.00801
21 | C82A A120U C150A C169U U176A | 0.00391

Row | Variant | reverse-splicing fitness
22 | C82A A120U C150A C169U U176C | 0.00414
23 | C82A A120U C150A C169U U176G | 0.00215
24 | C82A A120U A145U C169U U176G | 0.00154
25 | C82A A120U A145U C169U U176A | 0.00202
26 | C82A A120U A145U C169U U176C | 0.00276
27 | C82A A145U C150A U176C | 0.0555
28 | C82A A145U C150A U176G | 0.0181
29 | C82A A145U C150A U176A | 0.0485
30 | C82A A145G C150U C169G U176G | 0.00547
31 | C82A A145G C150U C169G U176A | 0.0138
32 | C82A A145G C150U C169G U176C | 0.02
33 | C82A A145G C169G U176C | 0.0324
34 | C82A A145G C169G U176A | 0.0218
35 | C82A A145G C169G U176G | 0.00481
36 | C82A A120U C150G C169A U176A | 0.00498
37 | C82A A120U C150G C169A U176C | 0.00411
38 | C82A A120U C150G C169A U176G | 0.00312
39 | C82A A120U C150U U176C | 0.0352
40 | C82A A120U C150U U176G | 0.00609
41 | C82A A120U C150U U176A | 0.0194
42 | C82A A120U A145U C150G C169A | 0.00305

Row | Variant | reverse-splicing fitness
43 | C82A A120U A145U C150G C169G | 0.00265
44 | C82A A120U A145U C150G C169U | 0.00321
45 | C82A A145G C150A C169U U176A | 0.0138
46 | C82A A145G C150A C169U U176G | 0.00699
47 | C82A A145G C150A C169U U176C | 0.0137
48 | C82A A120U A145U C150A C169U U176A | 0.00228
49 | C82A A120U A145U C150A C169U U176G | 0.00196
50 | C82A A120U A145U C150A C169U U176C | 0.0026
51 | C82A A120U A145U C150U U176C | 0.0364
52 | C82A A120U A145U C150U U176A | 0.0232
53 | C82A A120U A145U C150U U176G | 0.0066
54 | C82A A120U A145U C169G | 0.00509
55 | C82A A120U A145U C169U | 0.0055
56 | C82A A120U A145U C169A | 0.00202
57 | C82A A120U C150U C169G U176C | 0.00363
58 | C82A A120U C150U C169G U176G | 0.00165
59 | C82A A120U C150U C169G U176A | 0.00534
60 | C82A A120U A145U C150G C169G U176A | 0.00253
61 | C82A A120U A145U C150G C169G U176G | 0.00188
62 | C82A A120U A145U C150G C169G U176C | 0.00221
63 | C82A A120U A145G C150U C169A U176G | 0.00195

Row | Variant | reverse-splicing fitness
64 | C82A A145G C150U C169U | 0.0162
65 | C82A A145G C150U C169A | 0.0115
66 | C82A A145G C150U C169G | 0.0117
67 | C82A A145C C150G C169G | 0.00828
68 | C82A A145C C150G C169A | 0.00909
69 | C82A A145C C150G C169U | 0.00817
70 | C82A A145C C150G C169U U176G | 0.00534
71 | C82A A145C C150G C169U U176C | 0.00749
72 | C82A A145C C150G C169U U176A | 0.00823
73 | C82A A120U A145U C150U C169U U176A | 0.00274
74 | C82A A120U A145U C150U C169U U176G | 0.00221
75 | C82A A120U A145U C150U C169U U176C | 0.00354
76 | C82A A120U C169A U176C | 0.00197
77 | C82A A120U C169A U176G | 0.00137
78 | C82A A120U C169A U176A | 0.00254
79 | C82A A120U C150U C169U | 0.00643
80 | C82A A120U C150U C169A | 0.00439
81 | C82A A120U C150U C169G | 0.00546
82 | C82A A145G C150A U176C | 0.0855
83 | C82A A145G C150A U176A | 0.0679
84 | C82A A145G C150A U176G | 0.0222
